Positions count from the first letter of the chain named. Numbers in names are those of the source.
T1: DmGS2 (Drosophila melanogaster, UniProt P20478)
T1 construct: gene Gs2; 367 residues per monomer modelled
T1 sequence (P20478 1-369): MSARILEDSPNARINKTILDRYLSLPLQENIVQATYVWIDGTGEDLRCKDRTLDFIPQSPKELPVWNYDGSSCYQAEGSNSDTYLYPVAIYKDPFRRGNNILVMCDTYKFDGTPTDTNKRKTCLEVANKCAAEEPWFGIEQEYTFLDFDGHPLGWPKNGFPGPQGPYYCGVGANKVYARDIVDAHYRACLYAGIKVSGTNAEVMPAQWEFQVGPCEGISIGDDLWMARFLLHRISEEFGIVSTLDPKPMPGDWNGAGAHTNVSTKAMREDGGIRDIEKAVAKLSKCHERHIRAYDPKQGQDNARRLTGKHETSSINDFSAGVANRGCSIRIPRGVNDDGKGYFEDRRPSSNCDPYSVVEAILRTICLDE

B1: DmGS2 (Drosophila melanogaster; P214A) (protein)
chain: T1 sequence (P20478 1-369) with P214A
notes: 367 residues per monomer modelled
B2: Drosophila melanogaster glutamine synthetase 2 (DmGS2), wild type (enzyme, UniProt P20478 1-369, looked up)
chain: T1 sequence (P20478 1-369)
notes: Glutamine synthetase 2, cytoplasmic (DmGS2), Drosophila melanogaster; full-length cDNA of mature DmGS2, GenBank X52759; residues numbered to 369; 367 residues of each monomer seen in the crystal; Decamer of two stacked pentamers in the crystal (with ADP); pentamer and decamer in solution by AUC; No removal of the tags is described; also called WT DmGS2; WT; copies: 10
B3: DmGS2 (Drosophila melanogaster; E311A) (protein)
chain: T1 sequence (P20478 1-369) with E311A
notes: as for B1

How the values were obtained:
DmGS2 = target: T1, DmGS2; assay: X-ray crystal structure, […] Å; assay type: binding; conditions: active site; crystallised with ATP and MgCl2, ADP found in all 10 monomers
purified protein [1] = substrate: N; assay: purified protein; conditions: saturating glutamate, 12 mM ATP, 50 mM MgCl2, 50 mM imidazole-HCl pH 7.0, 37 °C
purified protein [2] = substrate: NC(=O)CC[C@H](N)C(=O)O; assay: purified protein; assay type: biochemical, Drosophila melanogaster; conditions: saturating hydroxylamine, 3 mM MnCl2, 0.4 mM ADP, 20 mM potassium arsenate, 40 mM imidazole pH 7.9, 37 °C
purified protein [3] = substrate: NO; assay: purified protein; assay type: biochemical, Drosophila melanogaster; conditions: saturating glutamine, 3 mM MnCl2, 0.4 mM ADP, 20 mM potassium arsenate, 40 mM imidazole pH 7.9, 37 °C
purified protein [4] = substrate: N[C@@H](CCC(=O)O)C(=O)O; assay: purified protein; assay type: biochemical, Drosophila melanogaster; conditions: saturating NH4Cl, 12 mM ATP, 50 mM MgCl2, 50 mM imidazole-HCl pH 7.0, 37 °C
[5] = target: the molecule itself; assay: AUC; sedimentation velocity, 20 °C, samples 500 μL at 1.0 mg/mL, absorbance at 280 nm, SEDFIT85
[6] = target: the molecule itself; assay: crystal structure; DmGS2 with ADP bound; protein 12 mg/mL in 20 mM Tris-HCl pH 7.9, 150 mM NaCl, 5 mM MgCl2, 5 mM ATP, 1 mM sodium 2-mercaptoethanesulphonate; hanging-drop vapor diffusion; 2.12 Å

| Molecule | X-ray crystal structure, 2.12 Å (DmGS2) | Km (purified protein [1]) [mM] | Vmax (purified protein [1]) [µM/min] | kcat (purified protein [1]) [s⁻¹] | kcat/Km (purified protein [1]) [M⁻¹ s⁻¹] | Km (purified protein [2]) [mM] | Vmax (purified protein [2]) [µM/min] | kcat (purified protein [2]) [s⁻¹] | kcat/Km (purified protein [2]) [M⁻¹ s⁻¹] | Km (purified protein [3]) [mM] | Vmax (purified protein [3]) [µM/min] | Km (purified protein [4]) [mM] | Vmax (purified protein [4]) [µM/min] | kcat (purified protein [4]) [s⁻¹] | kcat/Km (purified protein [4]) [M⁻¹ s⁻¹] | stoichiometry N [5] | stoichiometry N [6] |
| --- | --- | --- | --- | --- | --- | --- | --- | --- | --- | --- | --- | --- | --- | --- | --- | --- | --- |
| Nc1ncnc2c1ncn2[C@@H]1O[C@H](COP(=O)(O)OP(=O)(O)O)[C@@H](O)[C@H]1O [ADP] | A structure was obtained for the DmGS2 decamer in complex with ADP | – | – | – | – | – | – | – | – | – | – | – | – | – | – | – | – |
| B1 | – | 0.11 ± 0.03 | 5.5 | 0.0183 | 177 | 30.6 ± 6.1 | 150 | 0.5 ± 0.0333 | 16.8 ± 2.33 | 1.5 ± 0.2 | 88 | 6.8 ± 2.2 | 10.6 | 0.0355 ± 0.00183 | 6.33 ± 2.17 | – | – |
| B2 | – | 0.47 ± 0.03 | 4.6 | 0.0153 | 32.7 | 43.1 ± 9.7 | 120 | 0.4 ± 0.0333 | 9.67 ± 1.33 | 2.0 ± 0.4 | 64 | 5.9 ± 1.6 | 9.2 | 0.0307 ± 0.00133 | 5.67 ± 1.33 | 5 | 10 |
| B3 | – | – | – | – | – | – | – | – | – | – | – | 26.2 ± 2.2 | 5.5 | 0.0183 ± 0.00133 | 0.7 ± 0.00833 | – | – |

Reference: PMC7764910, “Structural Insight into the Contributions of the N-Terminus and Key Active-Site Residues to the Catalytic Efficiency of Glutamine Synthetase 2” (Biomolecules, 2020)
